From article PMC12002104, “Identification and Protein Engineering of Galactosidases for the Conversion of Blood Type B to Blood Type O” (Chembiochem, 2025)

Key:
[1] = test system: T1, O=[N+]([O-])c1ccc(O[C@H]2O[C@H](CO)[C@H](O)[C@H](O)[C@H]2O)cc1; assay: purified protein; format: biochemical, Pedobacter panaciterrae
T1 construct: recombinant, E. coli BL21 Gold (DE3), pET28(a), N-terminal His-tag kept for kinetics (thrombin site); for crystals His-tag cut off at introduced TEV site

[2] = substrate: O=[N+]([O-])c1ccc(O[C@H]2O[C@H](CO)[C@H](O)[C@H](O)[C@H]2O)cc1; assay: purified protein; format: biochemical, Bacteroides fragilis; conditions: 50 mM sodium phosphate pH 7.5
[3] = 50 mM sodium phosphate pH 7.5, 25.0 °C

## PpaGal (Pedobacter panaciterrae; W227Y)
[1]; [3]
  Km: 3.43 ± 0.34 mM
  kcat: 0.25 ± 0.01 s⁻¹

## PpaGal (Pedobacter panaciterrae)
[1]; 50 mM sodium phosphate pH 7.5
  Km: 3.512 ± 0.413 mM

B1: BfGalB (Bacteroides fragilis NCTC 9343) (protein)
chain: QERVYDISQFGLKANSKKNASPVVRKAIAKIKAECRDGEKVILRFPAGRYNFHEAGSTVREYYISNHDQDNPKKVGIALEDMKNLTIDGQGSEFVFYGRMIPVSLLRSENCVLKNFSIDFEQPHIAQVQVVENDPEKGITFEPAPWVDYRISKDSVFEGLGEGWVMRYSWGIAFDGKTKHVVYNTSDIGCPTKGAFEVAPRRICSPKWKDARLVPGTVVAMRGWGRPTPGIFMSHDVNTSLLDVKVHYAEGMGLLAQLCEDITLDGFGVCLKGDNDPRYFTTQADATHFSGCKGKIVSKNGLYEGMMDDAINVHGTYLKVIKRVDDHTLIGRYMHDQSWGFEWGRPGDDVQFVRSETMELIGKQNQITAIRPYDKGEIRGAREFSITFKEAIDPAINEKSGFGIENLTWTPEVLFAGNTIRNNRARGTLFSTPKKTVVEDNLFDHTSGTAILLCGDCNGWFETGACRDVTIRRNRFINALTNMFQFTNAVISIYPEIPNLKDQQKYFHGGKDGGIVIEDNEFDTFDAPILYAKSVDGLIFRNNVIKTNTEFKPFHWNKDRFLLERVTNVKISE
notes: recombinant, E. coli BL21 Gold (DE3), pET28(a), N-terminal His-tag, thrombin site
[2]
  Km: 6.950 ± 0.710 mM
  kcat: 0.753 ± 0.082 s⁻¹
